Values of other authors in publication PMC11695704.

Target: Clr-b (Mus musculus) (UniProt Q91V08)
Sequence of UniProt Q91V08 (Q91V08 whole entry): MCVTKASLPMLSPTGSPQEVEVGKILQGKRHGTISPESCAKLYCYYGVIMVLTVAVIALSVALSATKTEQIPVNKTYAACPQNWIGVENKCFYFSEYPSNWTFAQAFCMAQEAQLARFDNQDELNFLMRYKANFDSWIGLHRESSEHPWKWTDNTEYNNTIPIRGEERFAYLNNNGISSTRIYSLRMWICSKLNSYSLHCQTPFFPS

In the case of NKR-P1B (from UniProt P27812), the Kd is listed as > 500 µM.
